The target of test [1] is Selenomethionine substituted TRPM7cc (rat) (UniProt Q925B3). In words: crystal structure.
Test [2] deals with TRPM7 coiled-coil assembly domain (TRPM7cc), rat TRPM7 residues 1230-1282 (rat) (UniProt Q925B3). In words: AUC.
For test [3] the target is unchanged. Briefly: crystal structure.
Test [4] has the same target. Briefly: SEC.

Where “and” joins values, the source holds several entries; their conditions need not be identical. Equal values may be shown once.

For “Selenomethionine substituted TRPM7cc (from UniProt Q925B3 1230-1282) (domain or fragment)”, the stoichiometry N in test [1] was found to be 4.

Take “TRPM7 coiled-coil assembly domain (TRPM7cc), rat TRPM7 residues 1230-1282 (from UniProt Q925B3 1230-1282) (domain or fragment)”: the stoichiometry N was 4.1 and 3.7 in test [2]; 4 in test [3]; 4 in test [4].

These data come from PMC2630241.
